Experimental data taken from article PMC3079799 (Nature chemical biology, 2011).

Tests used:
[1] = target: T1, parathyroid hormone receptor type 1 with GFP inserted in its N-terminus (^GFPPTHR) (UniProt Q03431 27-593); experiment: FRAP
T1 sequence: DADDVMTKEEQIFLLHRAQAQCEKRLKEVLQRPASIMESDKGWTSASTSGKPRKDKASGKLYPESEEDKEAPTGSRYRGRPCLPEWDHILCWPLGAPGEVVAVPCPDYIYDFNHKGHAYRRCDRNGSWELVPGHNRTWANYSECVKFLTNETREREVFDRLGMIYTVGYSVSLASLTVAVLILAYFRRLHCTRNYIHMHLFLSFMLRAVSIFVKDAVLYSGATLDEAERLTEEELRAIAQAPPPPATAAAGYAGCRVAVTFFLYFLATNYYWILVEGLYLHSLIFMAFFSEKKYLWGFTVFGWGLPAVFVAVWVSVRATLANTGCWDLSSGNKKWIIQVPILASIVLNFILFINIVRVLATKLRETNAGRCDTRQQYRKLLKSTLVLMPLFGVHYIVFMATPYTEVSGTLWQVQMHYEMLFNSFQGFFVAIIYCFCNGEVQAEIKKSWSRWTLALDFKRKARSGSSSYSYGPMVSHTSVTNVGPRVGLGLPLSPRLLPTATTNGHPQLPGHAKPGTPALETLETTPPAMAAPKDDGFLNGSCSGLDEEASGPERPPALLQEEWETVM

[2] = target: T1, parathyroid hormone receptor type 1 …; experiment: FRAP; remark: listed apart in the source

B1: β-arrestin1 fused to tdTomato (β-arr1^tom) (natural protein)
chain: MGDKGTRVFKKASPNGKLTVYLGKRDFVDHIDLVDPVDGVVLVDPEYLKERRVYVTLTCAFRYGREDLDVLGLTFRKDLFVANVQSFPPAPEDKKPLTRLQERLIKKLGEHAYPFTFEIPPNLPCSVTLQPGPEDTGKACGVDYEVKAFCAENLEEKIHKRNSVRLVIRKVQYAPERPGPQPTAETTRQFLMSDKPLHLEASLDKEIYYHGEPISVNVHVTNNTNKTVKKIKISVRQYADICLFNTAQYKCPVAMEEADDTVAPSSTFCKVYTLTPFLANNREKRGLALDGKLKHEDTNLASSTLLREGANREILGIIVSYKVKVKLVVSRGGLLGDLASSDVAVELPFTLMHPKPKEEPPHREVPENETPVDTNLIELDTNDDDIVFEDFARQRLKGMKDDKEEEEDGTGSPQLNNR
Question: For B1, which “half-life (t1/2) of fluorescence recovery (FRAP), after M-PTH(1-28)” value [1] is on record?
Answer: 69 ± 4.5 s

Question: What about the “half-life (t1/2) of fluorescence recovery (FRAP), after PTH(1-34)” value [2] of the same binder?
Answer: 30 ± 2.5 s
